Experimental data published in patent US20140294898A1 (published 2014).
Positions of bridges follow the written chain, without caps; N, C: chain ends. Non-standard residues stand in square brackets, D forms with d. NMeNle = CCCC[C@H](NC)C(=O)O; αMeP = C[C@@]1(C(=O)O)CCCN1; NMeA = CN[C@@H](C)C(=O)O; dNMeA = CN[C@H](C)C(=O)O; Aze = O=C(O)[C@@H]1CCN1; Sar = CNCC(=O)O

B1: Compound No. 49 (peptide)
peptide: {CH2CO}-F[NMeA]N[αMeP]HL[Sar]WSW[NMeNle][NMeNle]RCG-NH2
modifications: thioether N-14
SMILES: CCCC[C@H]1C(=O)N(C)[C@@H](CCCC)C(=O)N[C@@H](CCCNC(=N)N)C(=O)N[C@H](C(=O)NCC(N)=O)CSCC(=O)N[C@@H](Cc2ccccc2)C(=O)N(C)[C@@H](C)C(=O)N[C@@H](CC(N)=O)C(=O)N2CCC[C@@]2(C)C(=O)N[C@@H](Cc2c[nH]cn2)C(=O)N[C@@H](CC(C)C)C(=O)N(C)CC(=O)N[C@@H](Cc2c[nH]c3ccccc23)C(=O)N[C@@H](CO)C(=O)N[C@@H](Cc2c[nH]c3ccccc23)C(=O)N1C
B2: Compound No. 50 (peptide)
peptide: {CH2CO}-F[NMeA]N[Aze]HL[Sar]WSW[NMeNle][NMeNle]RCG-NH2
modifications: thioether N-14
SMILES: CCCC[C@H]1C(=O)N(C)[C@@H](CCCC)C(=O)N[C@@H](CCCNC(=N)N)C(=O)N[C@H](C(=O)NCC(N)=O)CSCC(=O)N[C@@H](Cc2ccccc2)C(=O)N(C)[C@@H](C)C(=O)N[C@@H](CC(N)=O)C(=O)N2CC[C@H]2C(=O)N[C@@H](Cc2c[nH]cn2)C(=O)N[C@@H](CC(C)C)C(=O)N(C)CC(=O)N[C@@H](Cc2c[nH]c3ccccc23)C(=O)N[C@@H](CO)C(=O)N[C@@H](Cc2c[nH]c3ccccc23)C(=O)N1C
B3: Compound No. 5 (peptide)
peptide: {CH2CO}-A[NMeA]NPHL[Sar]WSW[NMeNle][NMeNle]RCG-NH2
modifications: thioether N-14
SMILES: CCCC[C@H]1C(=O)N(C)[C@@H](CCCC)C(=O)N[C@@H](CCCNC(=N)N)C(=O)N[C@H](C(=O)NCC(N)=O)CSCC(=O)N[C@@H](C)C(=O)N(C)[C@@H](C)C(=O)N[C@@H](CC(N)=O)C(=O)N2CCC[C@H]2C(=O)N[C@@H](Cc2c[nH]cn2)C(=O)N[C@@H](CC(C)C)C(=O)N(C)CC(=O)N[C@@H](Cc2c[nH]c3ccccc23)C(=O)N[C@@H](CO)C(=O)N[C@@H](Cc2c[nH]c3ccccc23)C(=O)N1C
B4: Compound No. 7 (peptide)
peptide: {CH2CO}-F[Sar]NPHL[Sar]WSW[NMeNle][NMeNle]RCG-NH2
modifications: thioether N-14
SMILES: CCCC[C@H]1C(=O)N(C)[C@@H](CCCC)C(=O)N[C@@H](CCCNC(=N)N)C(=O)N[C@H](C(=O)NCC(N)=O)CSCC(=O)N[C@@H](Cc2ccccc2)C(=O)N(C)CC(=O)N[C@@H](CC(N)=O)C(=O)N2CCC[C@H]2C(=O)N[C@@H](Cc2c[nH]cn2)C(=O)N[C@@H](CC(C)C)C(=O)N(C)CC(=O)N[C@@H](Cc2c[nH]c3ccccc23)C(=O)N[C@@H](CO)C(=O)N[C@@H](Cc2c[nH]c3ccccc23)C(=O)N1C
B5: Compound No. 8 (peptide)
peptide: {CH2CO}-F[NMeA]APHL[Sar]WSW[NMeNle][NMeNle]RCG-NH2
modifications: thioether N-14
SMILES: CCCC[C@H]1C(=O)N(C)[C@@H](CCCC)C(=O)N[C@@H](CCCNC(=N)N)C(=O)N[C@H](C(=O)NCC(N)=O)CSCC(=O)N[C@@H](Cc2ccccc2)C(=O)N(C)[C@@H](C)C(=O)N[C@@H](C)C(=O)N2CCC[C@H]2C(=O)N[C@@H](Cc2c[nH]cn2)C(=O)N[C@@H](CC(C)C)C(=O)N(C)CC(=O)N[C@@H](Cc2c[nH]c3ccccc23)C(=O)N[C@@H](CO)C(=O)N[C@@H](Cc2c[nH]c3ccccc23)C(=O)N1C
B6: Compound No. 10 (peptide)
peptide: {CH2CO}-F[NMeA]NPAL[Sar]WSW[NMeNle][NMeNle]RCG-NH2
modifications: thioether N-14
SMILES: CCCC[C@H]1C(=O)N(C)[C@@H](CCCC)C(=O)N[C@@H](CCCNC(=N)N)C(=O)N[C@H](C(=O)NCC(N)=O)CSCC(=O)N[C@@H](Cc2ccccc2)C(=O)N(C)[C@@H](C)C(=O)N[C@@H](CC(N)=O)C(=O)N2CCC[C@H]2C(=O)N[C@@H](C)C(=O)N[C@@H](CC(C)C)C(=O)N(C)CC(=O)N[C@@H](Cc2c[nH]c3ccccc23)C(=O)N[C@@H](CO)C(=O)N[C@@H](Cc2c[nH]c3ccccc23)C(=O)N1C
B7: Compound No. 11 (peptide)
peptide: {CH2CO}-F[NMeA]NPHA[Sar]WSW[NMeNle][NMeNle]RCG-NH2
modifications: thioether N-14
SMILES: CCCC[C@H]1C(=O)N(C)[C@@H](CCCC)C(=O)N[C@@H](CCCNC(=N)N)C(=O)N[C@H](C(=O)NCC(N)=O)CSCC(=O)N[C@@H](Cc2ccccc2)C(=O)N(C)[C@@H](C)C(=O)N[C@@H](CC(N)=O)C(=O)N2CCC[C@H]2C(=O)N[C@@H](Cc2c[nH]cn2)C(=O)N[C@@H](C)C(=O)N(C)CC(=O)N[C@@H](Cc2c[nH]c3ccccc23)C(=O)N[C@@H](CO)C(=O)N[C@@H](Cc2c[nH]c3ccccc23)C(=O)N1C
B8: Compound No. 13 (peptide)
peptide: {CH2CO}-F[NMeA]NPHL[NMeA]WSW[NMeNle][NMeNle]RCG-NH2
modifications: thioether N-14
SMILES: CCCC[C@H]1C(=O)N(C)[C@@H](CCCC)C(=O)N[C@@H](CCCNC(=N)N)C(=O)N[C@H](C(=O)NCC(N)=O)CSCC(=O)N[C@@H](Cc2ccccc2)C(=O)N(C)[C@@H](C)C(=O)N[C@@H](CC(N)=O)C(=O)N2CCC[C@H]2C(=O)N[C@@H](Cc2c[nH]cn2)C(=O)N[C@@H](CC(C)C)C(=O)N(C)[C@@H](C)C(=O)N[C@@H](Cc2c[nH]c3ccccc23)C(=O)N[C@@H](CO)C(=O)N[C@@H](Cc2c[nH]c3ccccc23)C(=O)N1C
B9: Compound No. 14 (peptide)
peptide: {CH2CO}-F[NMeA]NPHL[dNMeA]WSW[NMeNle][NMeNle]RCG-NH2
modifications: thioether N-14
SMILES: CCCC[C@H]1C(=O)N(C)[C@@H](CCCC)C(=O)N[C@@H](CCCNC(=N)N)C(=O)N[C@H](C(=O)NCC(N)=O)CSCC(=O)N[C@@H](Cc2ccccc2)C(=O)N(C)[C@@H](C)C(=O)N[C@@H](CC(N)=O)C(=O)N2CCC[C@H]2C(=O)N[C@@H](Cc2c[nH]cn2)C(=O)N[C@@H](CC(C)C)C(=O)N(C)[C@H](C)C(=O)N[C@@H](Cc2c[nH]c3ccccc23)C(=O)N[C@@H](CO)C(=O)N[C@@H](Cc2c[nH]c3ccccc23)C(=O)N1C
B10: Compound No. 16 (peptide)
peptide: {CH2CO}-F[NMeA]NPHL[Sar]WAW[NMeNle][NMeNle]RCG-NH2
modifications: thioether N-14
SMILES: CCCC[C@H]1C(=O)N(C)[C@@H](CCCC)C(=O)N[C@@H](CCCNC(=N)N)C(=O)N[C@H](C(=O)NCC(N)=O)CSCC(=O)N[C@@H](Cc2ccccc2)C(=O)N(C)[C@@H](C)C(=O)N[C@@H](CC(N)=O)C(=O)N2CCC[C@H]2C(=O)N[C@@H](Cc2c[nH]cn2)C(=O)N[C@@H](CC(C)C)C(=O)N(C)CC(=O)N[C@@H](Cc2c[nH]c3ccccc23)C(=O)N[C@@H](C)C(=O)N[C@@H](Cc2c[nH]c3ccccc23)C(=O)N1C
B11: Compound No. 17 (peptide)
peptide: {CH2CO}-F[NMeA]NPHL[Sar]WSA[NMeNle][NMeNle]RCG-NH2
modifications: thioether N-14
SMILES: CCCC[C@H]1C(=O)N(C)[C@@H](CCCC)C(=O)N[C@@H](CCCNC(=N)N)C(=O)N[C@H](C(=O)NCC(N)=O)CSCC(=O)N[C@@H](Cc2ccccc2)C(=O)N(C)[C@@H](C)C(=O)N[C@@H](CC(N)=O)C(=O)N2CCC[C@H]2C(=O)N[C@@H](Cc2c[nH]cn2)C(=O)N[C@@H](CC(C)C)C(=O)N(C)CC(=O)N[C@@H](Cc2c[nH]c3ccccc23)C(=O)N[C@@H](CO)C(=O)N[C@@H](C)C(=O)N1C
B12: Compound No. 22 (peptide)
peptide: {CH2CO}-F[NMeA]NPHL[Sar]WSW[NMeNle][NMeNle]ACG-NH2
modifications: thioether N-14
SMILES: CCCC[C@H]1C(=O)N(C)[C@@H](CCCC)C(=O)N[C@@H](C)C(=O)N[C@H](C(=O)NCC(N)=O)CSCC(=O)N[C@@H](Cc2ccccc2)C(=O)N(C)[C@@H](C)C(=O)N[C@@H](CC(N)=O)C(=O)N2CCC[C@H]2C(=O)N[C@@H](Cc2c[nH]cn2)C(=O)N[C@@H](CC(C)C)C(=O)N(C)CC(=O)N[C@@H](Cc2c[nH]c3ccccc23)C(=O)N[C@@H](CO)C(=O)N[C@@H](Cc2c[nH]c3ccccc23)C(=O)N1C
B13: Compound No. 25 (peptide)
peptide: {CH2CO}-W[NMeA]NPHL[Sar]WSW[NMeNle][NMeNle]RCG-NH2
modifications: thioether N-14
SMILES: CCCC[C@H]1C(=O)N(C)[C@@H](CCCC)C(=O)N[C@@H](CCCNC(=N)N)C(=O)N[C@H](C(=O)NCC(N)=O)CSCC(=O)N[C@@H](Cc2c[nH]c3ccccc23)C(=O)N(C)[C@@H](C)C(=O)N[C@@H](CC(N)=O)C(=O)N2CCC[C@H]2C(=O)N[C@@H](Cc2c[nH]cn2)C(=O)N[C@@H](CC(C)C)C(=O)N(C)CC(=O)N[C@@H](Cc2c[nH]c3ccccc23)C(=O)N[C@@H](CO)C(=O)N[C@@H](Cc2c[nH]c3ccccc23)C(=O)N1C
B14: Compound No. 30 (peptide)
peptide: {CH2CO}-Y[NMeA]NPHL[Sar]WSW[NMeNle][NMeNle]RCG-NH2
modifications: thioether N-14
SMILES: CCCC[C@H]1C(=O)N(C)[C@@H](CCCC)C(=O)N[C@@H](CCCNC(=N)N)C(=O)N[C@H](C(=O)NCC(N)=O)CSCC(=O)N[C@@H](Cc2ccc(O)cc2)C(=O)N(C)[C@@H](C)C(=O)N[C@@H](CC(N)=O)C(=O)N2CCC[C@H]2C(=O)N[C@@H](Cc2c[nH]cn2)C(=O)N[C@@H](CC(C)C)C(=O)N(C)CC(=O)N[C@@H](Cc2c[nH]c3ccccc23)C(=O)N[C@@H](CO)C(=O)N[C@@H](Cc2c[nH]c3ccccc23)C(=O)N1C

Molecular target: T1, hPDL1(19-239)-TVMV-His (human, UniProt Q9NZQ7 19-239)
T1 construct: The text says amino acids 18-239, the construct name says 19-239; Expressed in HEK293T cells; Used at 10 nM final in the HTRF assay; also called PD-L1-His; PD-L1-TVMV-His
T1 sequence (Q9NZQ7 other isoform, or with tags, fused parts or gaps limits assumed): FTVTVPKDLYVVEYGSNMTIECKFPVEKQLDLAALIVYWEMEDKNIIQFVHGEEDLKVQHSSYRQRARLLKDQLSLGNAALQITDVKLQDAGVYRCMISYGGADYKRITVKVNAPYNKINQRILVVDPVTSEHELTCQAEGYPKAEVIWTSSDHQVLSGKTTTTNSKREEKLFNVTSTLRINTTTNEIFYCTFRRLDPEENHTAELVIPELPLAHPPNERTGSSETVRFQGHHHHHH
Assay: HTRF competition, PD-1-Ig binding to PD-L1-His
Procedure: All binding studies were performed in an HTRF assay buffer consisting of dPBS supplemented with 0.1% (w/v) bovine serum albumin and 0.05% (v/v) Tween-20. […] PD-L1 fusion proteins from either human, cynomologous macaques, or mouse were used. HTRF detection was achieved using europium crypate-labeled anti-Ig monoclonal antibody (1 nM final) and allophycocyanin (APC) labeled anti-His monoclonal antibody (20 nM final). Antibodies were diluted in HTRF detection buffer and 5 μl was dispensed on top of binding reaction. The reaction was allowed to equilibrate for 30 minutes and signal (665 nm/620 nm ratio) was obtained using an EnVision fluorometer. […]
HTRF Experiments were performed essentially as outlined supra. Variant macrocyclic peptides were created as outlined herein.

Binder	IC50
B1	34 nM
B2	71 nM
B3	6500 nM
B4	55 nM
B5	31 nM
B6	16 nM
B7	31 nM
B8	16 nM
B9	59 nM
B10	5 nM
B11	7540 nM
B12	3 nM
B13	27 nM
B14	5 nM
